From article PMC11343458, “Extracellular proteolysis of tandemly duplicated pheromone propeptides affords additional complexity to bacterial quorum sensing” (PLOS Biology, 2024)

Experiments:
Rap^BA3 = Rap^BA3 overexpression; cited from earlier work
[1] = target: Rap^3T (Bacillus phage phi3T); assay: SEC-MALS; Rap^3T at 1 mg/ml, 50 mM Hepes (pH 7), 150 mM NaCl; apo, or preincubated with 100 μm pheromone (SRGHTS or RRGHTA) with 10 μm pheromone in the mobile phase
[2] = target: T1, Rap^105 labelled through its His tag (MST) (Bacillus phage phi105); assay: MST
T1 chain: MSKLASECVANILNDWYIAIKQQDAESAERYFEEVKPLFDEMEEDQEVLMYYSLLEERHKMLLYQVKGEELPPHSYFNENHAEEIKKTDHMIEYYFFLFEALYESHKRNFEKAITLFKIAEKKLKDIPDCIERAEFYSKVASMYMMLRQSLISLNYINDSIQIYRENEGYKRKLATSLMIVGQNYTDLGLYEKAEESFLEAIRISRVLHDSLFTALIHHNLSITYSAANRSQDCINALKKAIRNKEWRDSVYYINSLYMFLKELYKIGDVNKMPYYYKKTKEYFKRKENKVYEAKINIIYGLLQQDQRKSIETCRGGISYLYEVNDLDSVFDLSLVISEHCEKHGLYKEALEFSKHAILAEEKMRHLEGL

[3] = target: Rap^105 (Bacillus phage phi105); assay: thermal shift assay; Sypro Orange, 50 μm protein, 100 μm synthetic peptide, 20 mM Tris (pH 8), 250 mM NaCl (or filtered supernatant in the maturation assays), heated from 20 to 85°C
[4] = target: Rap^105 labelled through its His tag (MST) (Bacillus phage phi105); assay: MST; Rap^105 labelled with RED-tris-NTA on the His tag at 250 nM; peptide in a 16-point 2-fold dilution from 2 to 3 x 10^-5 μm; PBS with 0,02% tween; 15 min at room temperature; Hill model

For “RRGQT [peptide that relieves Rap^BA3 repression in previous work]”, the “relief of Rap^BA3 repression of sporulation and competence” value (Rap^BA3) is listed as “repression is relieved”.

Rap^3T (receptor) showed a stoichiometry N [1] of 2.

For ERPVGT, the EC50 [2] was 38.2 nM, the stabilization of the denaturation temperature [3] was 9 degrees and the EC50 [4] was 34 nM.
